According to patent US20140322332A1 (GENUS ONCOLOGY, published 2014):
Positions of bridges follow the written chain, without caps; N, C: chain ends. Non-standard residues stand in square brackets, D forms with d.

How the values were obtained:
[1] = target: T1, human MUC1 in human carcinoma cells (human, UniProt P15941 1097-1255); assay: cell-based or functional assay
T1 sequence: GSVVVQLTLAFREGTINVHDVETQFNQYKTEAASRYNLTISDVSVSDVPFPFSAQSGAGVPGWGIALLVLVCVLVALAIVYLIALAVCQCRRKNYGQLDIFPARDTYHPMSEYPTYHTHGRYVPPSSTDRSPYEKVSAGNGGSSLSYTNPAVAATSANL

[2] = target: human MUC1 in human carcinoma cells (human) (UniProt P15941); assay: cell-based or functional assay
[3] = target: dopamine D1 receptor (Homo sapiens (Human)) (UniProt P21728); assay: receptor binding screen, inhibition of radioligand binding
Sequence of dopamine D1 receptor (Homo sapiens (Human)) (P21728 whole entry, form in doubt): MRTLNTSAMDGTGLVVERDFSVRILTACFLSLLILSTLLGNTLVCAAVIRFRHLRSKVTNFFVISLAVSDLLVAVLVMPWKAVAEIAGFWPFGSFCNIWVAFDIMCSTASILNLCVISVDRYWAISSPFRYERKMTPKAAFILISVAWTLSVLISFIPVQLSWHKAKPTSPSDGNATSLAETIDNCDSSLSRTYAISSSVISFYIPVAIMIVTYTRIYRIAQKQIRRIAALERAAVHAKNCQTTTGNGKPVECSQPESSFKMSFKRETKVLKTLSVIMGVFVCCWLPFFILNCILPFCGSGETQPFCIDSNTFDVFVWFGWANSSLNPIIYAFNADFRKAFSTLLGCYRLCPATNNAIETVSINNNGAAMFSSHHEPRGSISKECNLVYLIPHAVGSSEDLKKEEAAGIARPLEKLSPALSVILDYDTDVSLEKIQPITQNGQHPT

## GO-203 (peptide)
[1]
  % inhibition of proliferation, H1975 lung cancer cells, 5 µM peptide daily, viable cells by trypan blue: 75.8%
  % inhibition of proliferation, ZR-75-1 breast cancer cells, 5 µM peptide daily, viable cells by trypan blue: 44%

## Ac-[dR][dR][dR][dR][dR][dR][dR][dR][dR][dC][dQ][dC][dR][dR][dK][dN]-NH2 (cysteine pairing not given here) [GO-203-2]
[2]
  % Inhibition of cell viability, A549 NSCLC, 5 µM: 75.4%
  % Inhibition of cell viability, H1975 NSCLC, 5 µM: 52.9%
  % Inhibition of cell viability, MCF-7 breast carcinoma, 5 µM: 91.4%
  % Inhibition of cell viability, ZR-75-1 breast carcinoma, 5 µM: 50.7%
  % inhibition of proliferation, H1975 lung cancer cells, 5 µM peptide daily, viable cells by trypan blue: 63.6%
  % inhibition of proliferation, ZR-75-1 breast cancer cells, 5 µM peptide daily, viable cells by trypan blue: 65.5%
  IC50 of inhibition of proliferation of a variety of human carcinoma cell lines in vitro: 2 to 5 µM

B1: GO-203-2c (peptide)
peptide: Ac-[dR][dR][dR][dR][dR][dR][dR][dR][dR][dC][dQ][dC][dR][dR][dK][dN]-NH2
modifications: disulfide 10-12
SMILES: CC(=O)N[C@H](CCCNC(=N)N)C(=O)N[C@H](CCCNC(=N)N)C(=O)N[C@H](CCCNC(=N)N)C(=O)N[C@H](CCCNC(=N)N)C(=O)N[C@H](CCCNC(=N)N)C(=O)N[C@H](CCCNC(=N)N)C(=O)N[C@H](CCCNC(=N)N)C(=O)N[C@H](CCCNC(=N)N)C(=O)N[C@H](CCCNC(=N)N)C(=O)N[C@@H]1CSSC[C@H](C(=O)N[C@H](CCCNC(=N)N)C(=O)N[C@H](CCCNC(=N)N)C(=O)N[C@H](CCCCN)C(=O)N[C@H](CC(N)=O)C(N)=O)NC(=O)[C@@H](CCC(N)=O)NC1=O
[3]
  IC50: 10.5 µM
[1]
  IC50 of inhibition of proliferation of a variety of human carcinoma cell lines in vitro: 2 to 5 µM
